According to patent publication US20200247891A1 (University of California, published 2020):

Molecular target: αvβ8 integrin on β8-transfected SW480 cells and β8-transfected SNB-19 cells (UniProt P26012 43-769; P06756 31-1048)
Assay: cell-based or functional assay

Sequence of αvβ8 integrin on β8-transfected SW480 cells and β8-transfected SNB-19 cells (P26012 43-769, chain 1 of 2): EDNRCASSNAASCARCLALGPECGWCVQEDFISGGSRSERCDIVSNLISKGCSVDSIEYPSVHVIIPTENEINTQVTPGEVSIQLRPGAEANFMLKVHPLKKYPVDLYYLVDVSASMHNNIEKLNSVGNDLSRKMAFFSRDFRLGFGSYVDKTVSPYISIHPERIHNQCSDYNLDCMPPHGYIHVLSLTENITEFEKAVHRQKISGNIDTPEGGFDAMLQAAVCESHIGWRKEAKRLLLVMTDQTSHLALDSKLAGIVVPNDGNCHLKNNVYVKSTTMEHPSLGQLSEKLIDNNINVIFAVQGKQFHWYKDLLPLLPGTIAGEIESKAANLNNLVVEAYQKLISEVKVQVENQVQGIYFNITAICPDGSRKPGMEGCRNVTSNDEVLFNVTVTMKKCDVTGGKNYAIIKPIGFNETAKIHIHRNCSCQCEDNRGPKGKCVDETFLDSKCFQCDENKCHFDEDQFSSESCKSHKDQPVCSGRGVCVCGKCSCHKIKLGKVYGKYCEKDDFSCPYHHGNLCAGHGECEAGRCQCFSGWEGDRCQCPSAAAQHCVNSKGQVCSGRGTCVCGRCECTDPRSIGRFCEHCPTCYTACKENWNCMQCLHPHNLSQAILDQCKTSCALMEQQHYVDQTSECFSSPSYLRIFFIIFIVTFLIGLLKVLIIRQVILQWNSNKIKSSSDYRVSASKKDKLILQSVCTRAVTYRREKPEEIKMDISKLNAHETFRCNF
Sequence of αvβ8 integrin on β8-transfected SW480 cells and β8-transfected SNB-19 cells (P06756 31-1048, chain 2 of 2): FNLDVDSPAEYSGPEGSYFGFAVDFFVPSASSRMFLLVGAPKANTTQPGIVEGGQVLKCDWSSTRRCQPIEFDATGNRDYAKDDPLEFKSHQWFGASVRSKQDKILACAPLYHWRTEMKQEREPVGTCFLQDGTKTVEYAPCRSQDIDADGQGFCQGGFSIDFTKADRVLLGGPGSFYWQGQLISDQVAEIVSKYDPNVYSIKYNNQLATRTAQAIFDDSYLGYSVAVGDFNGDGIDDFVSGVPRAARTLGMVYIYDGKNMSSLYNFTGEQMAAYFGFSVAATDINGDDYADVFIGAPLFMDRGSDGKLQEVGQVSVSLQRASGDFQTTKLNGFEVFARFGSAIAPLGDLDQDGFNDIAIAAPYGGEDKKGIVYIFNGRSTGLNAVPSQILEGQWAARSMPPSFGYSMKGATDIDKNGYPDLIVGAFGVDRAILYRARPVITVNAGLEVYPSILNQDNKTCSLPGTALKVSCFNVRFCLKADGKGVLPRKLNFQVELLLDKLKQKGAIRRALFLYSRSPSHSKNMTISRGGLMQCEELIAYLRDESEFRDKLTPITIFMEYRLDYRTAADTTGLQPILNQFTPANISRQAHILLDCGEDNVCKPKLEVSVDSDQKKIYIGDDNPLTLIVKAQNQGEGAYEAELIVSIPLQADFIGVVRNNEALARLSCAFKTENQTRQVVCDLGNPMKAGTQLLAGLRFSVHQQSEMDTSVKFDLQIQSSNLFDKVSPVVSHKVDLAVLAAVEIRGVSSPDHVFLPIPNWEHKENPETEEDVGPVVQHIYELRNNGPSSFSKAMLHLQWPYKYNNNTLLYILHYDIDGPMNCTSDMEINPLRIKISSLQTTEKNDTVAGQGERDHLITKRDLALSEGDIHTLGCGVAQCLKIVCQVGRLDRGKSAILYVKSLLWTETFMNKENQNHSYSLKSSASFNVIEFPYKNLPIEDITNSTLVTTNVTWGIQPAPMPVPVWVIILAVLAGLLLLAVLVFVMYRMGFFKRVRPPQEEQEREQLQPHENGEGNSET

B1: ADWA-11 (antibody, V domains shown)
VH: EVQLQQSGAELVRPGAFVKLSCKASGFNIKDYYMNWVLQRPEQGLEWIGWIDPDNGNTIYDPKFQGKASITADTSSNTAYLQLSSLTSEDTAVYYCARRLLMDYWGQGTSVTVSS
VL: DIVMTQAAPSVPVTPGESVSISCRSTKSLLHFNGNTYLFWFLQRPGQSPQRLIYYMSNLASGVPDRFSGRGSGTDFTLRISRVEAEDVGVYYCMQSLEYPFTFGTGTKLEIK
IC50 for inhibiting TGFβ activation: < 5 nM
